From US20050282239A1, “Cell-permeable enzyme activation reporter that can be loaded in a high throughput and gentle manner” (priority 2003, published 2005)
Ends that are not written are not given here.

What was measured:
[1] = target: T1, PKB (Homo sapiens, UniProt P31749); assay: CACE: intracellular phosphorylation of PKB substrate in HT1080 cells; format: cell-based; settings: cells with only two peaks
T1 construct: endogenous in cells; host or cells: HT1080 cells; HT1080/PTEN cells (engineered to over-express wild type PTEN, PKB itself not transfected)
Source text: Since the properties of F-PKB (SEQ ID NO:17) microinjected into HT1080 cells have been well characterized, experiments were undertaken to compare the fate of F-PKB-C loaded as F-PKB-C-SS-TAT (SEQ ID NO:16) into HT1080 cells to that of the microinjected F-PKB (SEQ ID NO:17). When microinjected, the percentage of phosphorylated F-PKB depended on the relative, steady-state levels of both the kinases and phosphatases. This observation is shown in electrophoretic traces from cells loaded with F-PKB-C-SS-TAT (1 μM) (FIG. 6). A single asterisk denotes the migration time of F-PKB, and a double asterisk denotes the migration time of phosphorylated F-PKB from cells on the day of the experiment.
CACE has been previously described (Sims, Meredith et al. 1998; Meredith, Sims et al. 2000; Li, Wu et al. 2001). Briefly, cells were placed on an inverted fluorescence microscope stage (Diaphot 300, Nikon, Japan) and maintained at 37° C. with an objective heater (Bioptechs; Butler, Pa.) prior to lysis unless stated otherwise. The cells were continually washed with ECB maintained at 37° C. (unless otherwise indicated) with a flow rate of 1 ml/min and a total chamber volume of 0.5 ml. The inlet of a capillary (30 μm I.D., 360 μm O.D., 75 cm long) was positioned 10 μm above the cell. The inverted microscope was coupled to a pulsed Nd:YAG laser and a CE system (Sims, 1998). The CACE-based assay was performed as previously described (U, 2001; Meredith, 2000). Cells were always maintained in ECB when analyzed by the CACE.
CE was performed as described (Sims, Meredith et al. 1998), with the following modifications. The inner walls of the capillaries (30 μm I.D., 360 μm O.D.) were coated with poly(acrylate) (Wang, Hu et al. 2003). The outlet of the capillary was held at a negative potential of 18-21 kV, and the inlet reservoir was held at ground potential. Under these conditions, the current through the capillary was typically ˜36 μA. Solutions of standards were loaded into the capillary by gravitational fluid flow. The loaded volume was calculated from Poiseulle's equation and from contributions by spontaneous fluid displacement and diffusion (Weinberger, 2000; Fishman, 1994; Crank, 1989). To estimate the number of moles of peptide in an unknown solution or within a cell, the peak area from the electrophoretic trace of the solution or the cell was compared to that of a standard of known concentration separated by electrophoresis on the same day. A 1 pL cell volume and 100% peptide recovery was assumed in calculating intracellular peptide concentration (Meredith, Sims et al. 2000; Sims, Meredith et al. 1998). Analytes were detected by laser-induced fluorescence (Sims, Meredith et al. 1998).
Cells were incubated at room temperature for 5 minutes in 1% bovine serum albumin (BSA) in ECB, washed in ECB, and then incubated for 5 minutes at room temperature with a substrate conjugated to TAT(49-57). The cells were then washed with 1% BSA in ECB. Cells loaded with the disulfide conjugate were placed in supplement DMEM (10% FCS, 4 mM L-glutamine, 100 U/mL penicillin and 100 μg/mL streptomycin) and incubated at 37° C. in 5% CO2 for 20 minutes. Cells loaded with the photolabile conjugate were placed in supplemented DMEM and incubated at 37° C. in 5% CO2 for 10 minutes (unless stated otherwise) and were then illuminated with a UV light source for 10 seconds (a radiant energy/unit area of 2 kJ/m^2). The supplemented DMEM was exchanged and the cells were incubated another 10 minutes at 37° C. in 5% CO2. Just prior to analysis the cells were washed into ECB.

[2] = tested on: RBL cells; assay: CACE single-cell analysis: loading and release of cargo; format: cell-based, rat; settings: 750 nM extracellular
[3] = target: T1, PKB; assay: CACE: intracellular phosphorylation of PKB substrate in HT1080/PTEN cells; format: cell-based; settings: 1 μM extracellular
Method: Previous investigators developed cleavable PTD-cargo conjugates by engineering a disulfide linkage between the two domains (Stein, Weiss et al. 1999; Hallbrink, Floren et al. 2001). […] TAT(49-57)(SEQ ID NO:2) was conjugated via a disulfide bond to cysteines added to substrate peptides for CamKII (F-CamKII-C; SEQ ID NO:13) or PKB (F-PKB-C; SEQ ID NO:14), denoted F-CamKII-C-SS-TAT (SEQ ID NO:15) and F-PKB-C-SS-TAT (SEQ ID NO:16), respectively. The TAT(49-57)-Conjugated substrates were incubated with cells (HT1080 or HT1080/PTEN cells) and the contents of the cells were analyzed by the CACE. […]
(§1) CACE has been previously described (Sims, Meredith et al. 1998; Meredith, Sims et al. 2000; Li, Wu et al. 2001). Briefly, cells were placed on an inverted fluorescence microscope stage (Diaphot 300, Nikon, Japan) and maintained at 37° C. with an objective heater (Bioptechs; Butler, Pa.) prior to lysis unless stated otherwise. […] Cells were always maintained in ECB when analyzed by the CACE.
(§2) CE was performed as described (Sims, Meredith et al. 1998), with the following modifications. […] The loaded volume was calculated from Poiseulle's equation and from contributions by spontaneous fluid displacement and diffusion (Weinberger, 2000; Fishman, 1994; Crank, 1989). […] Analytes were detected by laser-induced fluorescence (Sims, Meredith et al. 1998). […]

[4] = target: T2, PKB (Rattus norvegicus, UniProt P47196); assay: CACE: intracellular phosphorylation of PKB substrate in RBL cells; format: cell-based; settings: 750 nM extracellular
T2 construct: endogenous in cells; host or cells: RBL-2H3 rat basophilic leukemia cells, with or without PIP3-histone
Method: To determine whether the F-PKB-C delivered to cells by addition of F-PKB-C-SS-TAT (SEQ ID NO:16) at a 750 nM extracellular concentration could also be phosphorylated after pharmacologic activation of PKB (rather than constitutively active PKB), PIP3-histone was added to RBL cells. […] The CACE was used to analyze the amount of phosphorylated F-PKB-C in the presence (15 μM) and absence of PIP3-histone added for 10 min to RBL cells loaded with F-PKB-C-SS-TAT (FIG. 6C,D).
as §1, with “otherwise. The cells were continually washed with ECB maintained at 37° C. (unless otherwise indicated) with a flow rate of 1 ml/min and a total chamber volume of 0.5 ml.” for “otherwise.”
as §2

[5] = tested on: HT1080 cells; assay: CACE single-cell analysis: loading and release of cargo; format: cell-based, human
[6] = target: T3, recombinant CamKII (Rattus norvegicus, UniProt P11275); assay: In vitro kinase assay, 32P phosphate incorporation; format: biochemical; settings: peptides 5-60 μM, 30° C., 30 minutes
T3 construct: purchased Calbiochem (San Diego, Calif.) / EMD Biosciences (San Diego, Calif.)
Method: In addition to assessing the electrophoretic behavior of F-CamKII-TAT, the ability of this conjugated sequence to act as an efficient substrate for the CamKII enzyme was characterized. The amount of phosphate incorporated into the substrate peptide alone and into F-CamKII-TAT by CamKII was measured in vitro. In the range of measured peptide concentrations, 90% less phosphate was incorporated by the CamKII enzyme into F-CamKII-TAT compared to the peptide lacking the TAT(49-57) sequence. The kinetic properties of CamKII enzyme for the CamKII peptide substrate were degraded when the peptide was conjugated to TAT(49-57).
Peptides (5-60 μM) were phosphorylated in vitro by 100 units of recombinant CamKII (EMD Biosciences; San Diego, Calif.) in 20 mM Tris-HCl, 10 mM MgCl2, 0.5 mM dithiothreitol (DTT), and 0.1 mM Ethylenediaminetetraacetic acid-(EDTA, pH 7.5) with […], 2 mM CaCl2 and […] [[…]-^32P]-ATP. The final specific activity of the [[…]-^32P]-ATP was 100 cpm/pmole; the total reaction volume was 25 μL. The mixture was incubated at 30° C. for 30 minutes. The reaction was stopped by adding 45 μL ice-cold 10% (v/v) trichloroacetic acid, mixed with a vortex, centrifuged, and blotted onto P81 phosphocellulose paper. Phosphate incorporation was quantified with a liquid scintillation counter (LS 3801; Beckman Instruments; Irvine, Calif.)

[7] = tested on: cells; assay: Confocal microscopy of conjugate uptake; format: cell-based; settings: same concentration for all conjugates
Source text: The ability of the D- and L-arginine polymers to enhance trans-membrane transport was confirmed by confocal microscopy (see FIGS. 6A-F and Example 4).

[8] = tested on: Jurkat cells; assay: Michaelis-Menten kinetics of cellular uptake; format: cell-based, human; settings: 4° C. (on ice), Lineweaver-Burk plots, incubation 30-240 seconds
Method: When cellular uptake of polymers of D- and L-arginine were analyzed by Michaelis-Menten kinetics (see Example 6), the rate of uptake by Jurkat cells was so efficient that precise Km values could only be obtained when the assays were carried out at 4° C. (on ice). Both the maximal rate of transport (Vmax) and the apparent affinity of the peptides for the putative receptor of the Michaelis constant (Km) were derived from Lineweaver-Burk plots of the observed fluorescence of Jurkat cells after incubation with varying concentrations of nonamers of D- and L-arginine for 30, 60, 120, and 240 seconds.

[9] = tested on: F-CamKII-TAT (fluorescein-labeled CamKII substrate peptide conjugated to TAT(49-57) through a peptide bond)

T2 sequence (P47196 whole entry): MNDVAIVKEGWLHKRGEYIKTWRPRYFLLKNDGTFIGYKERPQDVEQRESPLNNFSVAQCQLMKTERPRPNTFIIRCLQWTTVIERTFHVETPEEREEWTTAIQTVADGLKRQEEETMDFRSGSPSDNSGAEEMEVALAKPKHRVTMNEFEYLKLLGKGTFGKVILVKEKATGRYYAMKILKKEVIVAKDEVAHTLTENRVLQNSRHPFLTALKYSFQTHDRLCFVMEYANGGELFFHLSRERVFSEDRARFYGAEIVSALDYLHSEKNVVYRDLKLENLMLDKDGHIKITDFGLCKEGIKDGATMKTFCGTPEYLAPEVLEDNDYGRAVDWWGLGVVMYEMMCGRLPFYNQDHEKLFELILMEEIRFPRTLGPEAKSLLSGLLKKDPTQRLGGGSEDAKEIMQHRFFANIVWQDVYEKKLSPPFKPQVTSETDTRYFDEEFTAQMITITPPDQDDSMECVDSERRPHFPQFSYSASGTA
T1 sequence (P31749 whole entry): as the sequence (P47196 whole entry) above, with N2S, E46D, S50A, R112K, T117E, A137S, T389K, N410G, D415H counted along it

Gly Arg Pro Arg Ala Ala Thr Phe Ala Glu Gly Cys Arg Lys Lys Arg Arg Gln Arg Arg Arg (Fluorescein-GRPRAATFAEGCRKKRRQRRR-NH2; not fully specified; printed as Gly Arg Pro Arg Ala Ala Thr Phe Ala Glu Gly Cys Arg Lys Lys Arg Arg Gln Arg Arg Arg; also: disulfide linkage between the PKB-Cys part and the TAT part (partner not shown)) [F-PKB-C-SS-TAT, F-PKB-C conjugated to TAT(49-57) via a disulfide bond]
peptide present as phosphorylated F-PKB-C [1]: 75±8% | detectable F-PKB-C per cell [2]: 1.4e-20 ± 1e-21 mol | intracellular concentration [2]: ~14 nM | peak of phosphorylated F-PKB-C [3]: no peak was present | F-PKB-C phosphorylated ([4]; PIP3-histone 15 μM 10 min, n=4): 39%±14% | F-PKB-C phosphorylation ([4]; cells not exposed to PIP3-histone): no phosphorylation | average amount of detected F-PKB-C ([5]; 215 nM extracellular): 2.5e-19 ± 3e-20 mol | cytosolic concentration of free F-PKB-C ([5]; 215 nM extracellular): ~250 nM | detectable F-PKB-C per cell ([5]; 1 μM extracellular): 7e-19 ± 3e-20 mol | cytosolic concentration of free F-PKB-C ([5]; 1 μM extracellular, 1 pL cell volume assumed): ~700 nM

Lys Lys Ala Leu His Arg Gln Glu Thr Val Asp Ala Leu Arg Lys Lys Arg Arg Gln Arg Arg Arg (KKALHRQETVDALRKKRRQRRR-NH2; not fully specified (N-terminus); printed as Lys Lys Ala Leu His Arg Gln Glu Thr Val Asp Ala Leu Arg Lys Lys Arg Arg Gln Arg Arg Arg; also: fluorescein label, position not given here) [F-CamKII-TAT, F-CamKII conjugated to TAT(49-57) through a peptide bond]
less phosphate incorporated by CamKII compared to the peptide lacking the TAT(49-57) sequence [6]: 90%

RKKRRQRRR [TAT(49-57), basic region of HIV TAT protein, residues 49-57]
fluorescence of cytosol by confocal microscopy [7]: only weak staining | Km [8]: 722 µM | Vmax [8]: 0.38 µM/s

Recombinant calcium-calmodulin activated kinase II (CamKII)
phosphate incorporated into the peptide by CamKII in vitro (32P-ATP kinase assay), compared to the substrate peptide lacking TAT(49-57) [9]: 90% less phosphate was incorporated by the CamKII enzyme into F-CamKII-TAT compared to the peptide lacking the TAT(49-57) sequence
